# Assay results: IntAct's records for PubMed 18923430
# B1: DnaJ homolog subfamily C member 3 (Mus musculus), Q91YW3 (parent)
# chain: MVAPGSVGSRLGAVFPFLLVLVDLQYEGAECGVNADVEKHLELGKKLLAAGQLADALSQFHAAVDGDPDNYIAYYRRATVFLAMGKSKAALPDLTKVIALKMDFTAARLQRGHLLLKQGKLDEAEDDFKKVLKSNPSEQEEKEAESQLVKADEMQRLRSQALDAFDGADYTAAITFLDKILEVCVWDAELRELRAECFIKEGEPRKAISDLKAASKLKSDNTEAFYKISTLYYQLGDHELSLSEVRECLKLDQDHKRCFAHYKQVKKLNKLIESAEELIRDGRYTDATSKYESVMKTEPSVAEYTVRSKERICHCFSKDEKPVEAIRICSEVLQMEPDNVNALKDRAEAYLIEEMYDEAIQDYEAAQEHNENDQQIREGLEKAQRLLKQSQKRDYYKILGVKRNAKKQEIIKAYRKLALQWHPDNFQNEEEKKKAEKKFIDIAAAKEVLSDPEMRKKFDDGEDPLDAESQQGGGGNPFHRSWNSWQGFNPFSSGGPFRFKFHFN
# Variants of: B1
# Settings: with bip_human HSPA5, P11021
# Sequence of bip_human HSPA5, P11021 (P11021 whole entry): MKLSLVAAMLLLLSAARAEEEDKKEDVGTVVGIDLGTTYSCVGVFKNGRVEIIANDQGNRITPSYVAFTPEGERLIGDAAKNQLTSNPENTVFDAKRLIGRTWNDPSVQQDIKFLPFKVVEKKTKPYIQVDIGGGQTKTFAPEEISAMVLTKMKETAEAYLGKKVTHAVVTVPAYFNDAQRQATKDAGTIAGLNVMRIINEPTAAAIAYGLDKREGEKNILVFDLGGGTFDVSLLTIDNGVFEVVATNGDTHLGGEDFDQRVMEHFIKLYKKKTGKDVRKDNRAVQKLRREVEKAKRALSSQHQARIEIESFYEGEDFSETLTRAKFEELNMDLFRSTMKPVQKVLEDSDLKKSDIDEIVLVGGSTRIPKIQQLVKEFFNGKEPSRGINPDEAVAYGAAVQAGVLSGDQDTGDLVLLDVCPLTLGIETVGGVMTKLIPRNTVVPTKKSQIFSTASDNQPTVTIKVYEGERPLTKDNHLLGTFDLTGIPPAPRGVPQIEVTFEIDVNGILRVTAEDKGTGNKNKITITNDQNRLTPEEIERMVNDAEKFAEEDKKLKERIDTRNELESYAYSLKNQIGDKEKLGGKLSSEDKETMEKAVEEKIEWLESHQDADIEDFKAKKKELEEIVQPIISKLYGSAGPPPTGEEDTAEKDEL
row,Variant,effect of a mutation on the interaction
1,H422Q,disrupting interaction
